The target of assay [1] is T1, MHC Class II molecule DRB1*01:01 (UniProt P01903 26-216; P01911 30-227).
T1 construct: Assay done by Immunitrack; the construct of the MHC II molecule is not described
The experiment in a line: peptide:MHC II complex stability assay (Immunitrack).

Assay [2] concerns the target T2, MHC Class II molecule DRB1*04:01 (UniProt P01903 26-216; P01911 30-227).
T2 construct: Assay done by Immunitrack; the construct of the MHC II molecule is not described
The description is as above.

B1: SEQ ID NO 30 (peptide)
peptide: LDQIIAQANLRLATM
notes: 15-mer peptide selected in silico from the S. aureus proteomes
On to B1, for which the binding result in assay [1] and in assay [2] was “binds” throughout.

B2: SEQ ID NO 21 (peptide)
peptide: EPINFILKSSTKLKA
notes: as for B1
In the case of B2, the binding result in assay [1] and in assay [2] was “binds” throughout.

B3: SEQ ID NO 24 (peptide)
peptide: IIKKLFRLPAIKRFE
notes: as for B1
For the molecule B3, the binding result in assay [1] and in assay [2] was “binds” throughout.

B4: SEQ ID NO 38 (peptide)
peptide: VLFYLRSNKRQIIEK
notes: as for B1
As for B4, the binding result in assay [1] and in assay [2] was “binds” in each case.

B5: SEQ ID NO 31 (peptide)
peptide: LMGIRAFRKLLPNIP
notes: as for B1
In the case of B5, the binding result in assay [1] and in assay [2] was “binds” throughout.

B6: SEQ ID NO 27 (peptide)
peptide: KHQIRMLSIPRDTIS
notes: as for B1
Consider B6, for which the binding result in assay [1] and in assay [2] was “binds” each time.

B7: SEQ ID NO 22 (peptide)
peptide: FLKLFRITNPIARGL
notes: as for B1
As to B7, the binding result in assay [1] and in assay [2] was “binds” throughout.

B8: SEQ ID NO 23 (peptide)
peptide: GLYFVAMNNLKAAGQ
notes: as for B1
Consider B8, for which the binding result in assay [1] and in assay [2] was “binds” throughout.

B9: SEQ ID NO 29 (peptide)
peptide: KTLFVALNNKARIPE
notes: as for B1
For the molecule B9, the binding result in assay [1] and in assay [2] was “binds” throughout.

B10: SEQ ID NO 28 (peptide)
peptide: KRIFKMSPIHHHFEL
notes: as for B1
In the case of B10, the binding result in assay [1] and in assay [2] was “binds” each time.

B11: SEQ ID NO 32 (peptide)
peptide: MHFIAISINHRTADV
notes: as for B1
As to B11, the binding result in assay [1] and in assay [2] was “binds” in each case.

B12: SEQ ID NO 36 (peptide)
peptide: SVTIIKSLQAIRVPF
notes: as for B1
On to B12, for which the binding result in assay [1] and in assay [2] was “binds” each time.

B13: SEQ ID NO 35 (peptide)
peptide: STFIYKIANERLFSR
notes: as for B1
Consider B13, for which the binding result in assay [1] and in assay [2] was “binds” in each case.

B14: SEQ ID NO 25 (peptide)
peptide: ILLGYFVAQRALVKA
notes: as for B1
Take B14: the binding result in assay [1] and in assay [2] was “binds” in each case.

B15: SEQ ID NO 26 (peptide)
peptide: KADALKAITALKLQM
notes: as for B1
For the molecule B15, the binding result in assay [1] and in assay [2] was “binds” throughout.

B16: SEQ ID NO 37 (peptide)
peptide: TSQFHVLRALRLAQK
notes: as for B1
Take B16: the binding result in assay [1] and in assay [2] was “binds” throughout.

B17: SEQ ID NO 40 (peptide)
peptide: YFRFQYFNPLKSERY
notes: as for B1
As to B17, the binding result in assay [1] and in assay [2] was “binds” throughout.

B18: SEQ ID NO 39 (peptide)
peptide: WKRIGRLKSIPIFMY
notes: as for B1
Turning to B18, the binding result in assay [1] and in assay [2] was “binds” throughout.

B19: SEQ ID NO 33 (peptide)
peptide: QRHFQIGYNRAARII
notes: as for B1
As to B19, the binding result in assay [1] and in assay [2] was “binds” each time.

B20: SEQ ID NO 34 (peptide)
peptide: SSNVYMFKTALKLAG
notes: as for B1
Consider B20, for which the binding result in assay [1] and in assay [2] was “binds” throughout.

These data come from US20190241623A1 (EVAXION BIOTECH A S, published 2019).
